Data from PMC13480645 (PLOS Pathogens, 2026).
Numbering of substitutions follows the chain as printed.

Key:
[1] = biological target: T1, HCoV-HKU1 S2 stem helix peptide (Human coronavirus HKU1, isolate N1, biotin on the N-terminus); assay: BLI; conditions: both partners purified
T1 chain: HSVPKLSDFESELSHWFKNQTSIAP

[2] = biological target: T2, SARS-CoV-2 spike, full length, expressed on the cell surface (SARS-CoV-2, UniProt P0DTC2); assay: cell-based or functional assay
[3] = biological target: T2, SARS-CoV-2 spike, full length, …; assay: flow cytometry on cells; conditions: one partner purified
[4] = biological target: T3, HCoV-HKU1 S2 stem helix peptide, biotinylated (Human coronavirus HKU1, isolate N1, biotin on the N-terminus); assay: BLI; conditions: both partners purified
T3 construct: also called HCoV-HKU1 stem helix peptide
T3 chain: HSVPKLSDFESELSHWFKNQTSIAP

B1: eCC65.1-12 (antibody, V domains shown)
VH: EVQLVQSGAEVKKPGASVKVSCKASGYTFTSQYMHWVRQAPGQGLEWMGIIDPSGGGTSYAQKFRDRVSMTRDTPTSTVYMELRSLRSEDTAVYYCASLWFENPSWRDYWGQGTLVTVSS
VL: DVVMTQSPGTLSLSPGERATLSCRASQTVNKNYLAWYQQKPGQAPRLLIYHASSRATGIPDRFSGSGSGTDFTLTISRLEPEDFAVYYCQQYGASPPLFTFGPGTKLEIK
- Kd [1]: 0.129 nM
- kon [1]: 301000 M⁻¹ s⁻¹

B2: CC65.1 human monoclonal antibody (IgG) (antibody, V domains shown)
VH: B1 VH
VL: B1 VL with K31S, H51R, A94S
- IC50 of neutralization of SARS-CoV-2 pseudovirus (HeLa-hACE2 cells) [2]: 6.16 µg/mL

B3: engineered CC65.1 mAb eCC65.1-12 (IgG) (antibody, V domains shown)
VH: B1 VH
VL: B1 VL
notes: copies: 2 + 2
- binding result [3]: binds
- fold increase in affinity over parental CC65.1 [4]: 6.7 fold
